Results as given in article PMC3139177.

What follows are substances tested against Recombinant platelet-derived growth factor-BB (UniProt P01127) (assay: SPR).
Sequence of UniProt P01127 (P01127 82-190): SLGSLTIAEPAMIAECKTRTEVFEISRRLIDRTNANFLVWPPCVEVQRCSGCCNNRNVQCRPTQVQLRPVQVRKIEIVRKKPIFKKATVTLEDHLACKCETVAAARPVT

Row | Kd [µM] | Substance
1 | 0.103 | Recombinant fibronectin type III repeat 1 (domain or fragment)
2 | 0.009 | Recombinant fibronectin type III repeats 13–14 (domain or fragment)
3 | 0.141 | Recombinant fibronectin variable domain (domain or fragment)
